B1: HDV Ribozyme (parent)
chain: GGCCGGCAUGGUCCCAGCCUCCUCGCUGGCGCCGGCUGGGCAACAUUCCGAGGGGACCGUCCCCUCGGUAAUGGCGAAUGGGACCCA

The variants in the data set derive from B1. The data set is described as follows: self-cleavage, relative activity (ratio to wild type); higher = more cleavage; co-transcriptional.
GGCCGGCAUGGUCCCAGCCUCCUCGCUGGCGCCGGCUGGGCAACGUUCCGAGGGGAUCGUCCCCUCGGUAAUGGCGAAUGGGACCCA [A45G C57U]: the self-cleavage came to 1.11.
As for GGCCGGCAUGGUCCCAGCCUCCUCGCUGGCGCCGGCUGGGCAACGUUCCGAGGGGACCGUUCCCUCGGUAAUGGCGAAUGGGACCCA [A45G C61U], the figure is 0.888; as for GGCCGGCAUGGUCCCAGCCUCCUCGCUGGCGCCGGCUGGGCAACGUUCCGAGGGGACCGUGCCCUCGGUAAUGGCGAAUGGGACCCA [A45G C61G], 0.467; as for GGCCGGCAUGGUCCCAGCCUCCUCGCUGGCGCCGGCUGGGCAACGUUCCGAGGGGACCGUACCCUCGGUAAUGGCGAAUGGGACCCA [A45G C61A], 1.15.
Take GGCCGGCAUGGUCCCAGCCUCCUCGCUGGCGCCGGCUGGGCAACGUUCCGAGGGGACCGUCCCUUCGGUAAUGGCGAAUGGGACCCA [A45G C64U]: the self-cleavage amounted to 0.889.
As for GGCCGGCAUGGUCCCAGCCUCCUCGCUGGCGCCGGCUGGGCAACGUUCCGAGGGGACCGUCCCGUCGGUAAUGGCGAAUGGGACCCA [A45G C64G], the figure is 0.591.
As for GGCCGGCAUGGUCCCAGCCUCCUCGCUGGCGCCGGCUGGGCAACGUUCCGAGGGGACUGUCCCCUCGGUAAUGGCGAAUGGGACCCA [A45G C58U], the figure is 0.906.
As for GGCCGGCAUGGUCCCAGCCUCCUCGCUGGCGCCGGCUGGGCAACGUUCCGAGGGGACGGUCCCCUCGGUAAUGGCGAAUGGGACCCA [A45G C58G], the self-cleavage worked out at 1.14.
In the case of GGCCGGCAUGGUCCCAGCCUCCUCGCUGGCGCCGGCUGGGCAACGUUCCGAGGGGACCGUCCCCUCCGUAAUGGCGAAUGGGACCCA [A45G G67C], the self-cleavage is 0.54.
Under GGCCGGCAUGGUCCCAGCCUCCUCGCUGGCGCCGGCUGGGCAACGUUCCGAGGGGACCGUCCCCUCGGUAAGGGCGAAUGGGACCCA [A45G U72G] stands 0.68.
GGCCGGCAUGGUCCCAGCCUCCUCGCUGGCGCCGGCUGGGCAACGUUCCGAGUGGACCGUCCCCUCGGUAAUGGCGAAUGGGACCCA [A45G G53U]: the self-cleavage turned out to be 0.884.
As for GGCCGGCAUGGUCCCAGCCUCCUCGCUGGCGCCGGCUGGGCAACGUUCCGAGCGGACCGUCCCCUCGGUAAUGGCGAAUGGGACCCA [A45G G53C], the figure is 1.05.
Under GGCCGGCAUGGUCCCAGCCUCCUCGCUGGCGCCGGCUGGGCAACGUUCCGAGGGGACCGUCCCCUCGGUAAUGGUGAAUGGGACCCA [A45G C75U] stands 0.208; under GGCCGGCAUGGUCCCAGCCUCCUCGCUGGCGCCGGCUGGGCAACGUUCCGAGGGGACCGUCCCCUCGGUAAUGGGGAAUGGGACCCA [A45G C75G], 0.0536; under GGCCGGCAUGGUCCCAGCCUCCUCGCUGGCGCCGGCUGGGCAACGUUCCGAGGGGACCGUCCCCUCGGUAAUGGAGAAUGGGACCCA [A45G C75A], 0.249.
Under GGCCGGCAUGGUCCCAGCCUCCUCGCUGGCGCCGGCUGGGCAACGUUCCGAGGGGACCGUCCCCUCGGUAAUGGCGAAAGGGACCCA [A45G U79A] stands 0.755.
For the variant GGCCGGCAUGGUCCCAGCCUCCUCGCUGGCGCCGGCUGGGCAACGUUCCGAGGGGACCGUCCCCUCGGUAAUGGCGAACGGGACCCA [A45G U79C], the self-cleavage worked out at 0.674.
As to GGCCGGCAUGGUCCCAGCCUCCUCGCUGGCGCCGGCUGGGCAACGUUCCGAGGGGUCCGUCCCCUCGGUAAUGGCGAAUGGGACCCA [A45G A56U], the self-cleavage amounted to 1.12.
With GGCCGGCAUGGUCCCAGCCUCCUCGCUGGCGCCGGCUGGGCAACGUUCCGAGGGGACCGUCCCCUCGGUAAUGGCGAAUGGGACCCC [A45G A87C], the self-cleavage is 1.11.
Turning to GGCCGGCAUGGUCCCAGCCUCCUCGCUGGCGCCGGCUGGGCAACGUUCCGAGGGGACCGUCCCCUCGGUAAUGGCGAAUGGGACCCG [A45G A87G], the self-cleavage was found to be 0.868.
On to GGCCGGCAUGGUCCCAGCCUCCUCGCUGGCGCCGGCUGGGCAACGUUCCGAGGGGACCGCCCCCUCGGUAAUGGCGAAUGGGACCCA [A45G U60C], for which the self-cleavage turned out to be 0.831.
As for GGCCGGCAUGGUCCCAGCCUCCUCGCUGGCGCCGGCUGGGCAACGUUCCGAGGGGACCGUCCCCUCGGUAAUGGCGAAUGGGACCCA [A45G], the figure is 0.918; as for GGCCGGCAUGGUCCCAGCCUCCUCGCUGGCGCCGGCUGGGCAACUUUCCGAGGGGACCGUCCCCUCGGUAAUGGCGAAUGGGACCCA [A45U], 0.832.
As to GGCCGGCAUGGUCCCAGCCUCCUCGCUGGCGCCGGCUGGGCAACGUUCCGAGGGGACCUUCCCCUCGGUAAUGGCGAAUGGGACCCA [A45G G59U], the self-cleavage stood at 0.931.
Under GGCCGGCAUGGUCCCAGCCUCCUCGCUGGCGCCGGCUGGGCAACGUUCCGAGGGGACCCUCCCCUCGGUAAUGGCGAAUGGGACCCA [A45G G59C] stands 1.02; under GGCCGGCAUGGUCCCAGCCUCCUCGCUGGCGCCGGCUGGGCAACGUUCCGAGGGGACCGUCCCCUCGGUAAUGGCGACUGGGACCCA [A45G A78C], 0.237.
Turning to GGCCGGCAUGGUCCCAGCCUCCUCGCUGGCGCCGGCUGGGCAACGUUCCGAGGGGACCGUCCCCUCGGUAAUGGCGAGUGGGACCCA [A45G A78G], the self-cleavage came out at 0.617.
As for GGCCGGCAUGGUCCCAGCCUCCUCGCUGGCGCCGGCUGGGCAACGUUCCGAGGGGACCGUCCCCUCGGUUAUGGCGAAUGGGACCCA [A45G A70U], the figure is 1.09.
Consider GGCCGGCAUGGUCCCAGCCUCCUCGCUGGCGCCGGCUGGGCAACGUUCCGAGGGGACCGUCCCCUCGGUGAUGGCGAAUGGGACCCA [A45G A70G], for which the self-cleavage amounted to 0.997.
Under GGCCGGCAUGGUCCCAGCCUCCUCGCUGGCGCCGGCUGGGCAACGUUCCGAGGGGACCGUCCCCUCGGUCAUGGCGAAUGGGACCCA [A45G A70C] stands 0.88.
Under GGCCGGCAUGGUCCCAGCCUCCUCGCUGGCGCCGGCUGGGCAACGUUCCGAGGGGACCGUCCCCUCGGUAAUUGCGAAUGGGACCCA [A45G G73U] stands 0.415; under GGCCGGCAUGGUCCCAGCCUCCUCGCUGGCGCCGGCUGGGCAACGUUCCGAGGGGACCGUCCCCUCGGUAAUCGCGAAUGGGACCCA [A45G G73C], 0.388.

Source of the values: the RNAGym collection of RNA variant scans (doi:10.7554/elife.80360).
